Measurements as given in patent US20260234204A1, “BRK PEPTIDES AND METHODS OF USE” (Concarlo Therapeutics, Inc., priority 2023, published 2026).

B1: IpY.20: smaller and more stable variant of ALT, SEQ ID NO: 6; tested as liposomal IpY.20 (peptide)
chain: MVSRDQAHLGPKYVGLWDFKSRTDEELSFRAGDVFHVARKEEQWWWATLLDEAGGAVAQGYVPHNYLAERETVESEPAGHAGSAALQDLAA
modifications: liposomal formulation

How the values were obtained:
Assay type in all cases: cell-based
PDAC cell lines [1] = experiment: ROS-Glo assay in PDAC cells
Protocol: (§1) FIGS. 2A-2F. FIGS. 2A and 2B are Western Blots, illustrating results from assays performed with treatment naive cells to analyze the expression levels of p27. Cells were harvested with RIPA buffer supplemented with protease inhibitors. The MCF7-ALT Dox inducible cell line was used as a control. […] Cells were treated with increasing concentrations of IpY.20 for 24h. Viability was measured using the Cell Titer Glo assay (Promega). Viability was calculated relative to untreated control cells. N=4 *p<0.05. […] FIGS. 2D, 2E and 2F are graphs illustrating that IpY.20 induces ROS. Cells were treated with IpY.20 for 24 h. ROS levels were measured using ROS-Glo assay (Promega). % ROS was calculated relative to untreated control cells. N=4 *p<0.05. The MCF7-ALT inducible cell line induced ROS.

PDAC cell lines [2] = experiment: Rescue of IpY.20 effect on viability by pretreatment with inhibitors
Protocol: When the less sensitive PDAC lines were treated with IpY.20, pRIPK1 expression, a marker of necroptosis, increased (FIG. 3A). To determine if ROS-dependent induction of pRIPK1 and necroptosis was responsible for IpY.20's effect in PDAC cell lines, cells lines (A-D) were treated with N-acetyl-1-cysteine (5 mM) a ROS inhibitor, Necrostatin-1 (10 μM) which prevents RIPK1 phosphorylation and Caspase-3/7 Inhibitor, for 24 h, followed by IpY.20 for the next 24 h. N=4 *p<0.05.
(§2) When these lines were pre-treated with NAC, Nec-1, or Caspase 3/7 inhibitor followed by IpY.20 treatment, differential results were observed. N=4 *p<0.05 (FIGS. 4A-4D). NAC treatment of BxPC3 cells reduced ROS levels (FIG. 4B), but these cells were rescued by caspase treatment (FIG. 4C). […] Percent viability relative to control plotted in all cases. L3.6 (FIG. 4E), PL45 (FIG. 4F) and Panel (FIG. 4G) were rescued by NEC-1, NAC and caspase inhibition to differing extents. Biomarkers dictating response were determined.

pRIPK1 = pRIPK1 expression (marker of necroptosis)
[3] = test system: Pancreatic Ductal Adenocarcinoma (PDAC) cell lines; experiment: Cell viability (Cell Titer Glo) in PDAC cell lines
Protocol: FIGS. 1A-1D. FIGS. 1A and 1B are respectively a graph and an image showing that PDAC cells are resistant to palbociclib-treatment. Cells were treated with increasing concentrations of palbociclib (PD) for 24 h before analysis for viability (Cell Titer Glo, Promega). N=4 *p<0.05. Control=untreated cells. Viability plotted relative to growth in the presence of control. FIGS. 1C and 1D show PL5 cells treated with increasing concentrations of IpY.20 and E′NP before analysis of Cell Titer Glo analysis.
as §1, with “Cells were treated with IpY.20 for 24 h.” left out, “N=4 *p<0.05. The MCF7-ALT inducible cell line induced ROS.” left out
To test whether PDAC cells might be resistant to CDK4/6 inhibition due to activation of CDK2, experiments were performed. […] Some non-specific liposome toxicity was detected at the high concentrations. […]

BxPC3 = experiment: Caspase-Glo 3/7 Assay for apoptosis; conditions: treated 24 h
Source text: as §2

[4] = test system: CDK4i-resistant and treatment naive breast cancer cells; experiment: Arrest of breast cancer cells
[5] = L3.6, PL45 and Panel, to differing extents
[6] = PDAC lines that increased pRIPK1, pretreatment 24 h, then IpY.20 24 h

Molecule	ROS levels (PDAC cell lines [1]; BxPC3 cells, pretreatment followed by IpY.20)	rescue from IpY.20 effect (PDAC cell lines [2]; [5])	rescue from IpY.20 effect (PDAC cell lines [2]; [6])	pRIPK1 expression (pRIPK1; Super sensitive PDAC lines)	pRIPK1 expression (pRIPK1; less sensitive PDAC lines)	sensitivity to treatment ([3]; PL5, Panc1, L3.6 and BXPC3)	viability of CDK4i resistant pancreatic cell lines ([3]; increasing concentrations for 24h, relative to untreated control)	caspase expression (BxPC3)	ROS levels (PDAC cell lines [1]; treated 24 h, relative to untreated control cells)	ability to arrest cells [4]
CC(=O)N[C@@H](CS)C(=O)O [NAC, N-acetyl-1-cysteine]	reduced	rescued	rescued							
CN1C(=O)C(Cc2c[nH]c3ccccc23)NC1=S (stereo not drawn) [Nec1, Necrostatin-1]		rescued	rescued							
B1				did not exhibit induction	increased	super sensitivity	reduces viability	strongly induced	induces ROS	behaved similarly to IpY.1
